Measured values published in the Human Domainome abundance scans (Beltran et al. 2025).

B1: Friend leukemia integration 1 transcription factor, residues 116 to 197; numbered along this chain, Q01543 (parent)
chain: NMTTNERRVIVPADPTLWTQEHVRQWLEWAIKEYSLMEIDTSFFQNMDGKELCKMNKEDFLRATTLYNTEVLLSHLSYLRES

Variants of: B1
Experiment: abundance fitness (aPCA) (normalised: wild type 0, dead -1); higher = more abundant; growth selection in yeast, the domain comes from the species named
Details: Homo sapiens

Abundance fitness of substitutions, site by site:
T41: F 0.302, N -0.103, G -0.129, C 0.015, Y 0.051, E -0.08, D 0.063, V -0.09, A -0.035, R -0.079, K 0.011, L 0.051, P 0.003, H -0.14, Q -0.076
K50: I -0.113, Y 0.249, L -0.12, C -0.281, F -0.064, Q 0.013, G -0.059, T 0.212, M -0.087, N 0.068, D -0.093, E 0.058, W -0.239, S -0.032, V -0.159, H 0.031, P 0.013
S35: E -0.101, C -0.183, L -0.335, R -0.156, F -0.33, Q -0.105, P -0.228, D -0.02, M -0.271, N 0.011, H -0.132, W -0.509, G 0.073, T -0.021, A -0.076, V -0.405
M55: P -0.784, Q -0.158, L 0.011, R -0.444, G -0.75, I -0.381, C 0.007, A -0.119, K 0.021, S -0.424, T -0.204, N -0.752, E -0.805
K54: M 0.021, P -0.687, Q -0.057, E 0.1, L -0.017, V -0.14, G -0.015, S -0.01, T -0.204, H -0.494, Y -0.359, N 0.02, R -0.063, D 0.098, W -0.396
L52: F -0.072, I -0.608, W -0.943, S -0.991, V -0.192, M -0.277, P -0.627, T -0.928, C -0.692, G -0.915, E -0.976, A -0.602, R -1.03
N46: V -0.34, G -0.089, S -0.087, H 0.297, A -0.077, M -0.135, L -0.175, C -0.153, T 0.071, K 0.033, Y -0.09, F 0.045, W -0.114, P -0.205, R 0.066, I -0.397
D40: I -0.576, S -0.217, N 0.162, G -0.631, V -0.892, W -0.887, A -0.486, E -0.043, R -0.469, Y -0.686, Q -0.252, M -0.67, L -0.921, P -0.162, T -0.268, K -0.276
F43: S -0.037, Q 0.004, G -0.204, K -0.118, C -0.35, H -0.167, L 0.077, A -0.063, I -0.164, T -0.11, W 0.002, V -0.118, P -0.052, D -0.175, R -0.091, M -0.019, Y -0.013
S42: D 0.084, Y -0.264, K -0.223, M -0.11, G -0.062, A -0.037, T 0.023, P -0.094, V -0.07, W -0.294, E -0.352, N 0.291, H -0.054, L -0.134, R -0.115
E51: C -0.219, I -0.259, T 0.034, D -0.332, R -0.084, W -0.477, Q 0.03, Y -0.679, V -0.127, H 0.068, L -0.135, G -0.058, P -0.766, M -0.1, F -0.243, K -0.01
E38: I -0.32, N -0.397, R -0.203, Q -0.215, C -0.126, S -0.068, W -0.349, L -0.04, G -0.131, H -0.231, F -0.329, K -0.087, V -0.231, M -0.09, T -0.145
I39: V 0.019, T -0.159, F -0.112, M 0.027, R -1, A -0.259, C -0.102, E -0.261, L -0.017, P -0.654, Q -0.743, K -1.04, G -0.85, W -0.57
M37: S -0.078, A 0.003, C -0.317, F 0.187, D 0.021, R -0.055, G -0.02, Y 0.059, Q -0.242, N -0.44, K 0.008, V 0.066, E -0.115, L -0.001, T 0.055, W -0.13, P -0.076
G49: K -0.994, I -0.506, W -0.777, A -1.01, M -0.965, V -0.755, S -0.943, R -0.889, L -0.579, T -0.919, Q -0.977
D48: P -0.295, G -0.114, S -0.013, T -0.04, M -0.464, C -0.388, K -0.227, A -0.118, H -0.366, I -0.391, Q -0.205, V 0.031, E -0.222, Y -0.358, N -0.201, R -0.305, W -0.82
Y34: S -0.108, N 0.245, R -0.207, W 0.046, Q -0.346, T -0.684, M -0.185, V -0.978, P -0.897
C53: N -0.197, M -0.134, S -0.213, G -0.142, V -0.017, T -0.048, P -0.905, Q -0.099, R -0.72, Y -0.377, H -0.324, A -0.222, W -0.463, F 0.031, L 0.153, E -0.409, K -0.553
F44: L -0.227, G -0.637, N -0.875, E -0.991, V -0.21, R -1.05, P -0.744, Q -0.96, D -0.914, A -0.095, M -0.331, I -0.278, H -0.884, S -0.499, C -0.117, T -0.453, W -0.13
L36: P -0.573, F -0.195, N -0.742, V -0.21, K -0.839, A -0.83, T -0.51, S -0.566, R -1.04, C -0.769, Q -0.603, H -0.521, E -0.605, I 0.08, D -0.521, G -0.467
Q45: T -0.068, A 0.028, P -0.381, V 0.062, W 0.056, E 0.045, Y 0, S -0.003, D -0.295, F -0.102, M 0.026, R 0.091, K -0.048, C -0.081, L -0.009, H -0.072, G -0.04
M47: W -0.417, F -0.293, A -0.162, R -0.239, N -0.285, Y 0.092, L -0.004, G -0.848, P -0.706, E -1.08, V -0.093, I 0.077, K -0.161, H -0.248, T -0.344
